In a protein production outcome set (Wang et al. 2014):

Test: label from the status in PepcDB records

| Sequence | protein production |
| --- | --- |
| MLEILMSLTAAICWAFNGIAYRKGVKDVSAFTANFHRTLFATVYFLPLALRDFPGVVIDLQTALVLVISAMLSFYIGDLSYFASLKRSPVSIALPASSTYPVYVVLLSTVIYGAELSLNALISAILVFVAVYIIYGSGEKGETSGLFYALLAAFSWALAILTLDFLTDRLPVSIVAFVRLLLCLILLSFTAKKDELSTEIRLFFRSVRGIFLLLGIMLFITAIKVSSSWNVVQPSSTSPVFAAIFGAIFLKERISFRLVAGIFVIILAILLLLLPPLQ | failed |
| MSVAETEIPIPAATPSLTDACVHCGFCLSDCPSYRVLGRETDSPRGRVYLMDSLQQGRIELSDTVVEHFDTCLGCLACTSACPSGVQYDQLIEEMRQRIAQEHRRPWPEAIWRKLLFAFLPYPERLRPILRLGQLYQSSGLQNWLNRQPLLQKFPQLAAASALLPPLSPASFQDNWPTLLPALGDRRYRVGLLLGCVQRLFNPEVNAAAIRVLRANGCDVVIPPQQGCCGAVAHHQGEMQQAQDLARAVIRSFEAENLDAILVTASGCGHTLKHYGAILADDPEWCDRAQQLADRVQDVQEFLATVGLTTPLHPLQEQPLVVVYQDACHMLHGQKIRNQPRQLLQQIPGIELREPVDAQLCCGSAGIYNLLQPAIAAELGQQKARSLAETGAQMIASANIGCYVQIRHHLQAQSKDLPVLHPLQIIDRAMNFQNH | failed |
| MCAEFVERRLAAILAADVVGYSRLLEANEEETLNALRQHRRELFDPAVAIHGGHIIKVMGDGFLVEFGSVLSAARCAVEIQRGMLERNIGIPGDRHFAFRIGLNLGDIVFDEDDFHGDGINVAVRLQALAAPGGIACSAAVRHEVANKLDLGFADQGAMTVKNISRPVHVYFADWGNAPSSEEVPLTAGGHTRAPVNKPSVAVLPFANISNDPEQDFFSDGITEDLITDLSNVSGLFVLSRNTVFTWKGRSENLQRIAAELGVAYIVEGSVRKAGNQVRINAELIEAASDGHVWAARYDRDLTDIFEMQDEIVKAIVGQLKVKLLPEEKRAIEQAPTESVEAYTHFLRGREYYHIASRSNHLMARQSFARAIELDPGYARAYAGIAVCDARLRSQFGAEIPVEDILANTATALVIDPNLAEAYAAKGFALAVAGNRTEAVSAFAQALSLDANCHEANRYYAEFCVTEGQFELAATHFQRAMEIKPADYGAPIMLVNVLRSLGQIDKASSYARIALKRAEEELRLHPENANVACLGATALAFLGVRDTALEWLARSLATDPDDINIQYNAACTYALLGEIDRAIDLLEVWMPQVGIEMRLWFKNDSDLDPIRSHPRYLKLVSLSE | failed |
| MSDKKTQTRARILGAATQALLERGAVEPSVGEVMGAAGLTVGGFYAHFQSKDALMLEAFEQLLGKRRELLGELDPGLSGKERRALAAAFYLSRKHRDAQVDAGCPLPATLAEVARLPEGFREVLSRHVEIMVTSLAESPEETDVALADLVLMIGGLALARALGPGELSDRVLRAAKQAVN | not failed |
| NTKQLRFEDVVNQSSPKNCTVYCGGIASGLTDQLMRQTFSPFGQIMEIRVFPEKGYSFVRFSTHESAAHAIVSVNGTTIEGHVVKCYWGKESPDMT | not failed |
| MITRNAPRHALLGLILAGSLGTFVALPAVADNAAPAEQGQTTPALGSNLQTLKELDGKAPARRALNIQTWNTAEGARVLFVESRELPMFDMRLTFAAGSSQDQKSPGIALLTNAMLNEGVKGKDVNAIAQGFEGLGADFSNGSYRDMAVTSLRSLSAADKRDPALKLFSEVVGKPTFPADSLARIKNQLIASFKTQKQNPGAIASKELFNHLYGDHPYAHPSEGDAKSINAITLAQLKAFHAKGYAAGNAVIALVGDLSRDEAQAVAAQVSASLPKGPALAKVADPVEPKAGTTHIEFASNQTHLMLAQLGIDRNDPDYAALTVGNSVLGGGGFGSRLMTEVREKRGLTYGVSSGFTAMQVAGPFMIGLQTRAEMSENTLKLVQDIVRDFLANGPTQKEIDDVKRELTGSFPLTAASNSAIVGQLGAIGFYNLPLTYLEDYMAAAQSVTVEQVKAAMSKHLSADKMVIVTVGPTVEQKPLPAPTDKPTRQPVGVPEH | failed |
| MKAKREQILIRTSWISTIGNAILSTSKIIVGLWAGSLAVLGDGIDSATDVIISIVMIFTARIISQPPSKKYVFGYEKAEGIATKILSLVIFYAGVQMLISSIGSIFSEEAKEIPSAIAIYVTIFSIIGKLLLALYQYKQGKKIDSSMLTANAINMRNDVIISSGVLLGLIFTFIFKLPILDSITGLIISLFIIKSSIGIFIDSNVELMDGVKDVNVYNKIFEAVETVPGASNPHRVRSRMIGNLYMITLDIEVNPQITITQAHQIADAVEKSIKSSIDNVYDILVHVEPAGECQTDEKFGIDKGMVN | failed |
| MTDYTKLQQVRQWTQDNHVDVTYISNFHTISYLTGFESNPYERTLALFVFADAEPFLFAPALEVEAIKEMGWPYKVFGYLDHENPYALIADHIHAQLTDPKVWALETGNLTLDRFTALKQQFPAAHFDKDLSPYIQQLRLVKTADELEKLNIAGKWADFAFEQGFAAVKAGRTEQQIAAELQYALMKKGIMEMSFDTLVQAGEHAANPHGATNETQVKPNELVLFDLGVMYEGYASDASRTIAYGQPSAKQKEIFDVCLEANLTAQAAIKPGMAAEDVDKIARDIITKAGYGEYFIHRLGHGIGQTDHEFPSIMAGNHMPLVEGMCFSVEPGIYIPGVAGVRIEDCGVVTKEGFKPFTHTPKELKVLDL | failed |
| MQSKGATGSKSEQRTGLLNGVAAYGMWGLVPLYWPLLKPAGAVEILAHRMVWSLALVAVALLVMRRWAWAGELLRQPRKLALVTVAAAVITVNWGVYIWAVNAGHVVEASLGYFINPLVTIALGVLILKERMRPWQWAAVGVAFTAVVVLTVGYGQPPWISLCLAFSFGTYGLVKKKVNLGGIESLAAETAIQFLPALAYLLWLTASGGSTFGTQGGAGHAALLASTGVVTAIPLVCFGAAAIRVPLSTLGLLQYLAPVFQFLLGILYFHEAMPPERWAGFALVWLALSLLTWDALRAAHRASRALRTAPSRIVADEQITPVYEHP | failed |
| IAGPGLGSGVRARVLQSFTVDSSKAGLAPLEVRVLGPRGLVEPVNMVDNGDGTHTVTYTPSQEGPYMVSVKYADEEIPRSPFKVKVLPTYDASKVTASGPGLSSYGVPASLPVDFAIDARDAGEGLLAVQITDQEGKPKRAIVHDNKDGTYAVTYIPDKTGRYMIGVTYGGDDIPLSPYRIRATQTGDASKCLATGPGIASTVKTGEEVGFVVDAKTAGKGKVTCTVLTPDGTEAEADVIENEDGTYDIFYTAAKPGTYVIYVRFGGVDIPNSPFTVMATDGEVTAVEEAPVNACPPGFRPWVTEEAYVPVSDMNGLGFKPFDLVIPFAVRKGEITGEVHMPSGKTATPEIVDNKDGTVTVRYAPTEVGLHEMHIKYMGSHIPESPLQFYVNYPNSGSVSAYGPGLVYGVANKTATFTIVTEDAGEGGLDLAIEGPSKAEISCIDNKDGTCTVTYLPTLPGDYSILVKYNDKHIPGSPFTAKITDDSRRCSQVKLGSAADFLLDISETDLSSLTASIKAPSGRDEPCLLKRLPNNHIGISFIPREVGEHLVSIKKNGNHVANSPVSIMVVQSEIGDARRAKVYGRGLSEGRTFEMSDFIVDTRDAGYGGISLAVEGPSKVDIQTEDLEDGTCKVSYFPTVPGVYIVSTKFADEHVPGSPFTVKISGEGRVKESITRTSRAPSVATVGSICDLNLKIPEINSSDMSAHVTSPSGRVTEAEIVPMGKNSHCVRFVPQEMGVHTVSVKYRGQHVTGSPFQFTVGPLGEGGAHKVRAGGPGLERGEAGVPAEFSIWTREAGAGGLSIAVEGPSKAEITFDDHKNGSCGVSYIAQEPGNYEVSIKFNDEHIPESPYLVPVIAPSDDARRLTVMSLQESGLKVNQPASFAIRLNGAKGKIDAKVHSPSGAVEECHVSELEPDKYAVRFIPHENGVHTIDVKFNGSHVVGSPFKVRVGEPGQAGNPALVSAYGTGLEGGTTGIQSEFFINTTRAGPGTLSVTIEGPSKVKMDCQETPEGYKVMYTPMAPGNYLISVKYGGPNHIVGSPFKAKVTGQRLVSPGSANETSSILVESVTRSSTETCYSAIPKASSDASKVTSKGAGLSKAFVGQKSSFLVDCSKAGSNMLLIGVHGPTTPCEEVSMKHVGNQQYNVTYVVKERGDYVLAVKWGEEHIPGSPFHVTVP | failed |
| MRRRRRRDGFYLAPDFRHREAEDMAGVFDIDLDQPEDAGSEDELEEGGQLNESMDHGGVGPYELGMEHCEKFEISETSVNRGPEKIRPECFELLRVLGKGGYGKVFQVRKVTGANTGKIFAMKVLKKAMIVRNAKDTAHTKAERNILEEVKHPFIVDLIYAFQTGGKPYLILEYLSG | not failed |
